Measurements as given in article PMC1072803.

Molecular target: T1, CREB-HZ (CREB-H bZIP region) (Mus musculus, UniProt Q91XE9 206-318)
T1 sequence: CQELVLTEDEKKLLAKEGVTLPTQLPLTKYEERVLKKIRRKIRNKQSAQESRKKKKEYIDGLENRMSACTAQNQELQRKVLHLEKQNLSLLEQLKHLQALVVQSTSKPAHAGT
Test: competition

B1: box B, alcohol dehydrogenase-1 gene (dsDNA)
DNA 1: GATCTTGTACACGTAATCGTAGGATCC
DNA 2: GGATCCTACGATTACGTGTACAAGATC
  binding result: binds
